Source: the nanobody polyreactivity screen of Harvey et al. (2022)

Test: yeast display, Sf9 membrane polyspecificity reagent, FACS + sequencing; frameworks hold sequencing errors
Summary of the method: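 Polyreactivity labels are assigned by the sorting gate from which each nanobody was recovered. The gates were low and high (top ~1%), set on anti-HA fluorescence for expression and streptavidin fluorescence for reagent binding. Before sorting, galactose-induced (36–48 hours) yeast display cells were stained for 1 hour at 4 °C with 10% biotinylated, detergent-solubilized Sf9 membrane reagent.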
For “QVQLVESGGGLVQAGGSLRLSCAASGFIFYEYAMGWYRQATGKERELVAAITYSAGSTYYADSVKGRFTISRDNAKNTVYLQMNSLKPEDTAVYFCAKVDSEYRQVIQQEDDYWGQGTQVTVSS”, the “polyreactivity (PSR sort gate)” value was “low polyreactivity”.
With “QVQLVDSGGGLVQAGGSLRLSCAASGFIFDLYAMGWYRQAPGKERELVAAITTSGGTTYYADSVKGRFTISRDNAKNTVYLQMNSLIPEDTAVYFCAARRYSWYYYWGQGTQVTVSS” the “polyreactivity (PSR sort gate)” value was “high polyreactivity”.
For “QVQLVESGGGLVQAGGSLRLSCAASGSIFSTYVMVWYRQAPGKERELVAAITVSVGSTYYADSVKGRFTISRDNAKNTVYLQMNSLKPEDTAVYYCAAYGGTGYPFDAYYHDYDYWGQGTQVTVSS”, the “polyreactivity (PSR sort gate)” value was “low polyreactivity”.
With “QVQLVESGGGLVQAGGSLRLSCAASGSIFGLYAMGWYRQAPGKERELVAAISSSGGTTYYADSVKGRFTISRDNEKNTVYLQMNSLKPEDTAVYYCATDYYDDVTIGYDYWGQGTQVTVSS” the “polyreactivity (PSR sort gate)” value was “low polyreactivity”.
With “QVQLVESGGGFVQAGGSLRLSCAASGRIFRYYTMGWYRKAPGKERELVAAISWTGASTYYADSVKGRFTISLDNAKNTLYLQMNSLKPEDTAVYYCAADSYIAHHGFAMDYWGQGTQVTVSS” the “polyreactivity (PSR sort gate)” value was “low polyreactivity”.
For “QVQLVESGGGLVQAGGSLRLSCAASGRIFGKYAMGWYRQAPGKERELVAAIRITGGSTYYADSVKGRFTISRDNAKNTVYLQMNSLKPEDTAVYYCAAVYKYADVIYDYWGQGTQVTVSS”, the “polyreactivity (PSR sort gate)” value was “high polyreactivity”.
For “QVQLVESGGGLVQAGGSLRLSCDASGRIYEVYAMGWYRRAPGKERELVAAISADGTITSYADSVKGRFTISRDNAKNNVYLQMNSLKPEDTAVYYCNADPRFRGDYWGQGTQVTVSS”, the “polyreactivity (PSR sort gate)” value was “high polyreactivity”.
In the case of “QVQLVESVGGLVEAGRILRLSCAATGSTFPYNDLGWYRQAPGKQRELVADISGDSGSTYYADSVKGRFTISRDNAKNTVYLQMKSLKPEDTAVYYCAAEGLHYAGDYGTGYDNWGQGTQLTVSS”, the “polyreactivity (PSR sort gate)” value is reported as “low polyreactivity”.
For “QVQLVESGGGLVQAGGSLRLSCAASGSIFGVNALGWYRQAPGKERELVASITGGDSTNYADSVKGRFTISRDNAKNTVYLQMNSLKPEDTAFYYCAKDHYYRYEEGDYWGQGTQVTVSS”, the “polyreactivity (PSR sort gate)” value was “low polyreactivity”.
With “QVQLVESGGGLVQAGGSLRLSCAASGFTFGPNAMGWYRQAPGKEREFVAAISWSGGSTYYADSVKGRFTISRDNAKNTVYLQMNSLKPEDTAVYYCAARYRYTRSGTMGYWGQGTQVTVSS” the “polyreactivity (PSR sort gate)” value was “high polyreactivity”.
With “QVQLVESGGGLVQAGGSLRLSCAASGGTIAYNAMGWYRQAPWKERELVAAISSSGGRTYYADSVKGRFTITRDNAKNTVYLQMNRLKPEDTAVYYCATPVTNGFDYWGQGTQVTVSS” the “polyreactivity (PSR sort gate)” value was “high polyreactivity”.
For “QVQLVETAGGLVHAGGSLRLSCADSGRIFERNAMGWNRQSPGKERELVARITSGGGTYYADSVKGRFTISRDNAKNTVYLQMNSLKPEDTAVYYCAVQYLYRKYRRYDYWGQGTQVTVSS”, the “polyreactivity (PSR sort gate)” value was “high polyreactivity”.
In the case of “QVQLVESGGGLVQAGGSLRLSCAASGYTFYYAMGWYRQAPGKERELVAAISAGGGRTYYADSVKGRFTISRDNAKNTDYLQMNSLKPEDTAVYYCNRVYRLTAYGYDYWGQGTQVTVSS”, the “polyreactivity (PSR sort gate)” value is reported as “high polyreactivity”.
With “QVQLVETGGGLVQAGGSLRLSCAASGFTIRRYTMGWYRQAPGKERELVAAITRGVRTYYADSVKGRFTISRDNAKNTVYLQMNSLKPEDTAVYYCNTAQQSERDYWGQGTQVTVSS” the “polyreactivity (PSR sort gate)” value was “high polyreactivity”.
For “QVQLVESGGGLVQAGGSLRLSCAASGFTFRFYAMGWYRQAPAKERELVAAISRGGSTYYADSVKGRFTISRDNAKYTVYLQMNSLKPEDTAVFYCAKRGRYGDYWGQGTLVTVSS”, the “polyreactivity (PSR sort gate)” value was “high polyreactivity”.
With “QVQHVESGGGLVQAGGSLRLSCAASGYTFYFYAMGWYRQAPGKERELVAAITGGGTTSYADSVKGRFTISRDNAKNTVYLQMNSLKPEDTAVYYCNVLFADKSDYWGPGTQVTVSS” the “polyreactivity (PSR sort gate)” value was “low polyreactivity”.
With “QVQLVESGGGLVQAGGSLRLSCAASGSTFSYNAMGWYRRAPGKERELVAAISWNGDSTYADSVKGRFTISRDNAKNTVYLQMNSLKPEDTAVYYCAKETIITPGRRKSPRYLHGYWGQGTQVTVSS” the “polyreactivity (PSR sort gate)” value was “low polyreactivity”.
In the case of “QVQLVESGGGLVQAGGSLRLSCAASGRIFQRNVMGWYRQAPGKERELVASITGGGTTNYAHSVKGRFTISRDNAKNTVYLPRNSLKPEDTAVYYCNRRQNVGRVSQYEYWGQGTQVTVSS”, the “polyreactivity (PSR sort gate)” value is reported as “low polyreactivity”.
With “QVQLEESGRGLVQAGGSLRLSCASSGIIFDGNAMGWYRQAAGKERELVAAITGGGSTDNADSVKGRFTISRDNGKYTVYLQMNSLKPEDTAVYYCAAVRSYYPGYYLGQGTQVTVSS” the “polyreactivity (PSR sort gate)” value was “high polyreactivity”.
For “QVQLEESGGGLVQAGGSLRLSCAASGSIFALYAMGWYRQAPGKERELVAAISYRGGRTYYADSVKARFTISRDYAKNTVYLQMNILKPEDTAVYYCATDFPCKFDFWGQGTQVTVSS”, the “polyreactivity (PSR sort gate)” value was “low polyreactivity”.
In the case of “QVQLVESGGGLVQAGGSLRLSCAASGYIFRYNAMGWYRQAPGKERELVAAIRATGGSTYYADSVKGRFTISRDNAKNTVSLQMNSLKPEDTAVYYCNAGGQGRTYRYYYWGQGTQVTVSS”, the “polyreactivity (PSR sort gate)” value is reported as “high polyreactivity”.
In the case of “QDQLVESGGGLVQAGGSLRLSCAASGRNIGGYAMGWNRLAPGKEWELVAAISRSGGSTYYADSVKGRFTISRDNAKNTVYLQMNSLKPEDTAVYYCAAETVSSFYTLWTGKYDYWGQGTQVTVSS”, the “polyreactivity (PSR sort gate)” value is reported as “high polyreactivity”.
With “QVQLVESGGGLVQAGGSLRLSCAASGSIFDLNAMGWYRQAPGKERELVAAISSGGGTYYADSVKGRFTISRDNAKNTVYFQMNSLKPEDTAVYYCNRVTRWTYNYWGQGTQVTVSS” the “polyreactivity (PSR sort gate)” value was “high polyreactivity”.
In the case of “QVQLVESGGGLVHAGGSLRLSCADSGFTFGAYAMGWYRQAPGKERELVATITNSGRTYYADSVKGRFTISRDNAKNTVYLQMNSLNPEDTAVYYCAAQPDGQAMEHWGQGTQVTVSS”, the “polyreactivity (PSR sort gate)” value is reported as “low polyreactivity”.
In the case of “QVQIVESGGGLVQAGGSLRLRCAASGRIFAYYAMGWYRQAPGKERELVAAISRSGVSTYYADSVKGRFTISRDNAKNTVYLQMNSLKPEDTAVYYCAARWRSGFTSGDYWGQGTQVTVSS”, the “polyreactivity (PSR sort gate)” value is reported as “low polyreactivity”.
In the case of “PVQLVESGGGLVQAGGSLRLSCAASGRIFPSYAMGWYRQAPGKERELVATINGDGGSTYYADSVKGRFTISRDNAKNTVYLQMNSLKPEDTAVYYCAKRYPFAAEYDYWGQGTQVTVSS”, the “polyreactivity (PSR sort gate)” value is reported as “low polyreactivity”.
For “QVQLVESGGGLVQAGGSLRLSCAASGRTFFGYAMGWYRQAPGKERELVAAITTSGGSTYYADSVKGRFTISRDNAKNTVYLQMNSLKPEDTAVYYCAADSTNYWLGFYYWGQGTQVTVSS”, the “polyreactivity (PSR sort gate)” value was “low polyreactivity”.
In the case of “QVQLVESGGGLVQAGGILRLSCAASGRIFRYYAMGWYRQAPGKERELVAGITRGGTTNYADSVKGRFTISRDNAKNTVYLQMNSLKPEDTAVYYCAAETRRGIIGYDYWGQGTKVTVSS”, the “polyreactivity (PSR sort gate)” value is reported as “high polyreactivity”.
For “QVQLVESGGGLVQAGGSLRLICAASGFIFRVYAMGWYRQAPGKERALVATITYDGGRTYYADSVKGRFTISRDNAKNTVYLQMNSLKPEDTAVFGYWGQGTQVTVSS”, the “polyreactivity (PSR sort gate)” value was “low polyreactivity”.
With “QVQLVHSGGGLVQAGGILRLSCAASGYTFGYYTRGWYRQAPGKERELVASIDSGGGTNYADSVKGRFSISRDNAKKTVYLQMNSLKPEDNAVYYCAAESPLYWVEDFESGWRFYYCGQGTQVTVSS” the “polyreactivity (PSR sort gate)” value was “low polyreactivity”.
With “QVQLVESGGGLVQAGGSLRLSCAASGRILTSNAMGWSRQAPGKERELVAAISWSGGSTYYADSVKGRFTISRDNAKNTVYLQMNSLKPEDTAVYYCAAPFTTTFDYWGQGTQVTVSS” the “polyreactivity (PSR sort gate)” value was “low polyreactivity”.
For “QVQLVESGGGLVQAGGSLRLSCAASGITFNGNAMGWYRQAPGKERELVAAITRTGTDTSYADSVKGRFTISRDNAKNTVYLQMNSLKPEDTAVYYCAAPPYNGYRYGTTGYYWGQGTQVTVSS”, the “polyreactivity (PSR sort gate)” value was “low polyreactivity”.
For “QVQLVESGGGIVQAGGSLSLSCAASGYNFTQNAMGGYRQAPGKERELVASITSGGSTDYADSVKGRFTISRDNAKNTVYLQMNSLKPEDTAVYYCAAEFHFWGYLYDYWGQGTQVTVSS”, the “polyreactivity (PSR sort gate)” value was “low polyreactivity”.
In the case of “QVQLVESGGGLVQAGGSLRLSCADSGFIFGNYAMGWYRQAPGKERELVAGISGSGGSTYYADSVKGRFTISRDNAKNTVYLQMNSLKPEDTAVYYCNAGWHPSQGRFEYWGQGTQVTVSS”, the “polyreactivity (PSR sort gate)” value is reported as “high polyreactivity”.
In the case of “QVQLVESGGGLVQARGSLRLSCAASGSIFSANAMGWYRQAPVKERELVAAISSSGNTNYADSVKGRFTISRDNAKNTLYLQMNSLKPEDTAVYYCAVELKQVTPGLGYITLDYWGQGTQVTVSS”, the “polyreactivity (PSR sort gate)” value is reported as “low polyreactivity”.
In the case of “QDQLVESGGGLVQAGGSLRLSCAASGFIFRFNARGWYRQAPGKEREVVAVIRWSSGSTYYADSVKGRFTISRDNAKNTVYLQMNSLKPEDTAVYYCAAVDDDYSIVWYYYWGQGTQVTVSS”, the “polyreactivity (PSR sort gate)” value is reported as “low polyreactivity”.
With “QVQLVESGGGLVQAGGSLRLSCAASGFIFKYNAMGWYRQAPGKERELVAAITSSGGSTYYADSVKGRFTISRDNAKNTVYLQMNSLKPEDTAVYYCNRVRDPSYDYWGQGTQVTVSS” the “polyreactivity (PSR sort gate)” value was “high polyreactivity”.
For “QVQLQESGGGLVQAGGSLRLSCAASGTITVLYKMAWFRQEPGKEREFVASINYGTSTYYADSVKGRFTVSRDSAKNTVYLQMNSLKPEDTAVYYCAAAYRWQDVYRYWGQGTQVTVSS”, the “polyreactivity (PSR sort gate)” value was “low polyreactivity”.
For “QVQLVESGGGLVQAGGSLRLSCAASGRIFYYYAMGWYRQAPGKERELVAAISQRGGRTYYADSVKGRFTISRDNAKNTVYLQMYSLNQEDPAVYYCNVAGVVYPWYYYWGQGTQVTVSS”, the “polyreactivity (PSR sort gate)” value was “high polyreactivity”.
With “QVQLVESGGGLVQAGGSLRLSCAASGRIFVYNAMGWYRQAPGKERELVAAITSGGSTYYADSVKGRFTISRDNAKNTVYLQMNSLKPEDTAVYYCAATYFSYTYSRYDYWGQGTQVTVSS” the “polyreactivity (PSR sort gate)” value was “high polyreactivity”.
For “QVQLVESGGGLVQAGGSLRLSCAASGITFIKNAMGWYRQAPGKERELVAAISRSGGRTYYADSVKGRFTISRDNAKNTVYLQMNSLKPEYTAVYYCAAVTQRSYIYDYWGQGTQVTVSS”, the “polyreactivity (PSR sort gate)” value was “high polyreactivity”.
